Test results published in PMC2756588.

T1: Abp1, P15891
T1 sequence (P15891 535-592, looked up): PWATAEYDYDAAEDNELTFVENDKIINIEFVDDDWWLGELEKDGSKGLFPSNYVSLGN

T2: Bbc1, P47068
T2 sequence (P47068 1-78, looked up): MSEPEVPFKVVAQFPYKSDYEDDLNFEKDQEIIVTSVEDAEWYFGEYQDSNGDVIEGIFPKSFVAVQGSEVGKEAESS

T3: Boi1, P38041
T3 sequence (P38041 1-86, looked up): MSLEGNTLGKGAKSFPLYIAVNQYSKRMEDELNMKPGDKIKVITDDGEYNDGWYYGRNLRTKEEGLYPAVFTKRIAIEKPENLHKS

T4: Boi2, P39969
T4 sequence (P39969 32-116, looked up): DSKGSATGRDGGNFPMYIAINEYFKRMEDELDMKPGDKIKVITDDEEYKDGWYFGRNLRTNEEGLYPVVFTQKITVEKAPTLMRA

T5: Bud14, P27637
T5 sequence (P27637 247-328, looked up): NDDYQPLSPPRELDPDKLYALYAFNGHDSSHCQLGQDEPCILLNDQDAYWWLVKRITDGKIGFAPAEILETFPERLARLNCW

T6: Bzz1-1, P38822
T6 sequence (P38822 478-572, looked up): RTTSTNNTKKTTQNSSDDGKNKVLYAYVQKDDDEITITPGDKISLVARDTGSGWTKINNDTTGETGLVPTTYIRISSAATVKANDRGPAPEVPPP

T7: Bzz1-2, P38822
T7 sequence (P38822 568-633, looked up): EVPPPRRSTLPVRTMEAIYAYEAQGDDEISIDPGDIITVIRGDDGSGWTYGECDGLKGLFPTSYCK

T8: Cdc25, P04821
T8 sequence (P04821 50-136, looked up): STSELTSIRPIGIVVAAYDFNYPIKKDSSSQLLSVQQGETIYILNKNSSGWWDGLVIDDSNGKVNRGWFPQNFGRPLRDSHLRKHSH

T9: Cyk3, Q07533
T9 sequence (Q07533 1-83, looked up): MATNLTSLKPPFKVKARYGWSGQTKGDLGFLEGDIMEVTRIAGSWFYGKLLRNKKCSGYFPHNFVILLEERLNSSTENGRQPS

T10: Fus1, P11710
T10 sequence (P11710 432-512, looked up): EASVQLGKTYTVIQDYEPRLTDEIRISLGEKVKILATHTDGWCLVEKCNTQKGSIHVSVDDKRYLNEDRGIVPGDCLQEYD

T11: Hof1, Q05080
T11 sequence (Q05080 590-669, looked up): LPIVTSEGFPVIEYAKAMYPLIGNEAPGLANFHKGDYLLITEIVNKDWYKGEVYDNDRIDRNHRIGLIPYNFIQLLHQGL

T12: Hse1, P38753
T12 sequence (P38753 208-285, looked up): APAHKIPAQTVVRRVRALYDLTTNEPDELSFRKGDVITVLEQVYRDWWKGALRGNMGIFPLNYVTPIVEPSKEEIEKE

T13: Lsb1, P53281
T13 sequence (P53281 45-122, looked up): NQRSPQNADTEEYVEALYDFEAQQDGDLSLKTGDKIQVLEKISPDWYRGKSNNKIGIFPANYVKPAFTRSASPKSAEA

T14: Lsb3, P43603
T14 sequence (P43603 385-451, looked up): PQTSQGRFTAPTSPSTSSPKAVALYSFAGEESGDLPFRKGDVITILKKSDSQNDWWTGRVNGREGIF

T15: Lsb4, P32793
T15 sequence (P32793 402-468, looked up): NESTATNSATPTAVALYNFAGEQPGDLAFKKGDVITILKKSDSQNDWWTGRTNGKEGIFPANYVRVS

T16: Myo5, Q04439
T16 sequence (Q04439 1072-1160, looked up): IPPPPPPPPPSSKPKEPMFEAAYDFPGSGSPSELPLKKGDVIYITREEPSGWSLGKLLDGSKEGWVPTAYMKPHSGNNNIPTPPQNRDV

T17: Nbp2, Q12163
T17 sequence (Q12163 103-180, looked up): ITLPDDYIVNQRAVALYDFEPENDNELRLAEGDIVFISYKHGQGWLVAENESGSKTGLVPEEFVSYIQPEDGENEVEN

T18: Pex13, P80667
T18 sequence (P80667 295-386, looked up): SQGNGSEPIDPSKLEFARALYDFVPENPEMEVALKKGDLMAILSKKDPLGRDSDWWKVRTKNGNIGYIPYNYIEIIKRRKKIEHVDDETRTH

T19: Pin3, Q06449
T19 sequence (Q06449 53-122, looked up): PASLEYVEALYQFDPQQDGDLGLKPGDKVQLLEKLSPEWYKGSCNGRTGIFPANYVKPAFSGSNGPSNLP

T20: Sla1-2, P32790
T20 sequence (P32790 60-140, looked up): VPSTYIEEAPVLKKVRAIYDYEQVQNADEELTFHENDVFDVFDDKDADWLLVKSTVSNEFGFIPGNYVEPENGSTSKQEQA

T21: Sla1-3, P32790
T21 sequence (P32790 344-424, looked up): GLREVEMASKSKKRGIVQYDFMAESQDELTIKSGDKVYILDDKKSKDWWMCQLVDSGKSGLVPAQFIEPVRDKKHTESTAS


Target: T1, Abp1, P15891
Assay: SPOT array
Conditions: median of control spots 935

SPOT intensity	Binder
184	GQYRRTIVIPRRFFT
289	TKFRISLGLPVGAIM
78	SKAKRPKFLLDLQIK

Target: T2, Bbc1, P47068
Assay: SPOT array
Conditions: median of control spots 796

SPOT intensity	Binder
258	GQYRRTIVIPRRFFT
43	TKFRISLGLPVGAIM
48	SKAKRPKFLLDLQIK

Target: Bem1-1, P29366
Assay: SPOT array
Conditions: median of control spots 4282

Chain of Bem1-1, P29366 (P29366 55-141): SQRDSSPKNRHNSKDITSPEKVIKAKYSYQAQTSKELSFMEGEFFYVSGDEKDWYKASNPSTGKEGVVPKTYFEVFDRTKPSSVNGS

SPOT intensity	Binder
0	GQYRRTIVIPRRFFT
0	TKFRISLGLPVGAIM
0	SKAKRPKFLLDLQIK

Target: Bem1-2, P29366
Assay: SPOT array
Conditions: median of control spots 4347

Chain of Bem1-2, P29366 (P29366 139-227): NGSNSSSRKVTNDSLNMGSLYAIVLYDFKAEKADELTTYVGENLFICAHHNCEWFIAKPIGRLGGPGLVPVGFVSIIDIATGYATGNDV

SPOT intensity	Binder
17	GQYRRTIVIPRRFFT
0	TKFRISLGLPVGAIM
0	SKAKRPKFLLDLQIK

Target: T3, Boi1, P38041
Assay: SPOT array
Conditions: median of control spots 1162

SPOT intensity	Binder
30	GQYRRTIVIPRRFFT
1	TKFRISLGLPVGAIM
2	SKAKRPKFLLDLQIK

Target: T4, Boi2, P39969
Assay: SPOT array
Conditions: median of control spots 1161

SPOT intensity	Binder
6	GQYRRTIVIPRRFFT
0	TKFRISLGLPVGAIM
0	SKAKRPKFLLDLQIK

Target: T5, Bud14, P27637
Assay: SPOT array
Conditions: median of control spots 956

SPOT intensity	Binder
13	GQYRRTIVIPRRFFT
6	TKFRISLGLPVGAIM
6	SKAKRPKFLLDLQIK

Target: T6, Bzz1-1, P38822
Assay: SPOT array
Conditions: median of control spots 4446

SPOT intensity	Binder
3	GQYRRTIVIPRRFFT
0	TKFRISLGLPVGAIM
1	SKAKRPKFLLDLQIK

Target: T7, Bzz1-2, P38822
Assay: SPOT array
Conditions: median of control spots 4538

SPOT intensity	Binder
0	GQYRRTIVIPRRFFT
2	TKFRISLGLPVGAIM
1	SKAKRPKFLLDLQIK

Target: T8, Cdc25, P04821
Assay: SPOT array
Conditions: median of control spots 969

SPOT intensity	Binder
156	GQYRRTIVIPRRFFT
108	TKFRISLGLPVGAIM
26	SKAKRPKFLLDLQIK

Target: T9, Cyk3, Q07533
Assay: SPOT array
Conditions: median of control spots 1451

SPOT intensity	Binder
4	GQYRRTIVIPRRFFT
0	TKFRISLGLPVGAIM
4	SKAKRPKFLLDLQIK

Target: T10, Fus1, P11710
Assay: SPOT array
Conditions: median of control spots 1200

SPOT intensity	Binder
48	GQYRRTIVIPRRFFT
32	TKFRISLGLPVGAIM
3	SKAKRPKFLLDLQIK

Target: GST
Assay: SPOT array
Conditions: median of control spots 978

SPOT intensity	Binder
5	GQYRRTIVIPRRFFT
0	TKFRISLGLPVGAIM
2	SKAKRPKFLLDLQIK

Target: T11, Hof1, Q05080
Assay: SPOT array
Conditions: median of control spots 4086

SPOT intensity	Binder
8	GQYRRTIVIPRRFFT
0	TKFRISLGLPVGAIM
2	SKAKRPKFLLDLQIK

Target: T12, Hse1, P38753
Assay: SPOT array
Conditions: median of control spots 1727

SPOT intensity	Binder
11	GQYRRTIVIPRRFFT
8	TKFRISLGLPVGAIM
2	SKAKRPKFLLDLQIK

Target: T13, Lsb1, P53281
Assay: SPOT array
Conditions: median of control spots 388

SPOT intensity	Binder
19	GQYRRTIVIPRRFFT
44	TKFRISLGLPVGAIM
7	SKAKRPKFLLDLQIK

Target: T14, Lsb3, P43603
Assay: SPOT array
Conditions: median of control spots 406

SPOT intensity	Binder
16	GQYRRTIVIPRRFFT
28	TKFRISLGLPVGAIM
2	SKAKRPKFLLDLQIK

Target: T15, Lsb4, P32793
Assay: SPOT array
Conditions: median of control spots 397

SPOT intensity	Binder
28	GQYRRTIVIPRRFFT
46	TKFRISLGLPVGAIM
5	SKAKRPKFLLDLQIK

Target: Myo3, P36006
Assay: SPOT array
Conditions: median of control spots 468

SPOT intensity	Binder
17	GQYRRTIVIPRRFFT
69	TKFRISLGLPVGAIM
6	SKAKRPKFLLDLQIK

Target: T16, Myo5, Q04439
Assay: SPOT array
Conditions: median of control spots 471

SPOT intensity	Binder
2	GQYRRTIVIPRRFFT
14	TKFRISLGLPVGAIM
0	SKAKRPKFLLDLQIK

Target: T17, Nbp2, Q12163
Assay: SPOT array
Conditions: median of control spots 357

SPOT intensity	Binder
120	GQYRRTIVIPRRFFT
159	TKFRISLGLPVGAIM
0	SKAKRPKFLLDLQIK

Target: T18, Pex13, P80667
Assay: SPOT array
Conditions: median of control spots 1341

SPOT intensity	Binder
20	GQYRRTIVIPRRFFT
29	TKFRISLGLPVGAIM
5	SKAKRPKFLLDLQIK

Target: T19, Pin3, Q06449
Assay: SPOT array
Conditions: median of control spots 2171

SPOT intensity	Binder
18	GQYRRTIVIPRRFFT
65	TKFRISLGLPVGAIM
4	SKAKRPKFLLDLQIK

Target: Rvs167, P39743
Assay: SPOT array
Conditions: median of control spots 2707

Chain of Rvs167, P39743 (P39743 419-482): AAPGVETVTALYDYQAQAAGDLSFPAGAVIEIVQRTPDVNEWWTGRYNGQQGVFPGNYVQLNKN

SPOT intensity	Binder
0	GQYRRTIVIPRRFFT
0	TKFRISLGLPVGAIM
0	SKAKRPKFLLDLQIK

Target: Sho1, P40073
Assay: SPOT array
Conditions: median of control spots 1148

Chain of Sho1, P40073 (P40073 287-367): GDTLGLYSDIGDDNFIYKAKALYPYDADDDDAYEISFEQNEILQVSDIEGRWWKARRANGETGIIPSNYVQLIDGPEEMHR

SPOT intensity	Binder
124	GQYRRTIVIPRRFFT
367	TKFRISLGLPVGAIM
114	SKAKRPKFLLDLQIK

Target: T20, Sla1-2, P32790
Assay: SPOT array
Conditions: median of control spots 712

SPOT intensity	Binder
8	GQYRRTIVIPRRFFT
9	TKFRISLGLPVGAIM
2	SKAKRPKFLLDLQIK

Target: T21, Sla1-3, P32790
Assay: SPOT array
Conditions: median of control spots 5475

SPOT intensity	Binder
58	GQYRRTIVIPRRFFT
3	TKFRISLGLPVGAIM
19	SKAKRPKFLLDLQIK
